Reference: the supplement of paper PMC10567573

B1: SMOC2 (parent)
chain: PALETQPQGDEEDIASRYPTLWTE

Variants of: B1
Assay: protein stability index of a GFP-peptide fusion (GPS, HEK-293T) (PSI 1-6); higher = more stable
Settings: c terminus: a fixed tail appended
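Also: lentivirally expressed fusions sorted by FACS into six bins by GFP to DsRed ratio, PSI derived from sequencing read proportions per bin multiplied by bin number.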

| Variant | protein stability index |
| --- | --- |
| PALETQPQGDEEGIASRYPTLWTE [D13G] | 3.85 |
| PALETQPQGDEEWIASRYPTLWTE [D13W] | 4.68 |
| PALETQPQGDEEVIASRYPTLWTE [D13V] | 3.93 |
| PALETQPQGDEETIASRYPTLWTE [D13T] | 4.23 |
| PALETQPQGDEEPIASRYPTLWTE [D13P] | 3.63 |
| PALETQPQGDEESIASRYPTLWTE [D13S] | 3.97 |
| PALETQPQGDEELIASRYPTLWTE [D13L] | 3.84 |
| PALETQPQGDEEEIASRYPTLWTE [D13E] | 3.76 |
| PALETQPQGDEEDIASKYPTLWTE [R17K] | 4.35 |
| PALETQPQGDEEDIASEYPTLWTE [R17E] | 4.5 |
| PALETQPQGDEEDIASHYPTLWTE [R17H] | 4.38 |
| PALETQPQGDEEDIASGYPTLWTE [R17G] | 4.71 |
| PALETQPQGDEEDIASAYPTLWTE [R17A] | 4.81 |
| PALETQPQGDEEDIASDYPTLWTE [R17D] | 4.94 |
| PALETQPQGDEEDIASMYPTLWTE [R17M] | 4.94 |
| PALETQPQGDEEDIASNYPTLWTE [R17N] | 4.23 |
| PALETQPQGDEEDIASIYPTLWTE [R17I] | 4.73 |
| PALETQPQGDEEDIASLYPTLWTE [R17L] | 4.72 |
| PALETQPQGDEEDIASFYPTLWTE [R17F] | 3.82 |
| PALETQPQGDEEDIASCYPTLWTE [R17C] | 3.2 |
| PALETQPQGDEEDQASRYPTLWTE [I14Q] | 4.4 |
| PALETQPQGDEEDWASRYPTLWTE [I14W] | 3.97 |
| PALETQPQGDEEDDASRYPTLWTE [I14D] | 5.77 |
| PALETQPQGDEEDTASRYPTLWTE [I14T] | 5.06 |

| Variant | protein stability index |
| --- | --- |
| PALETQPQGDEEDGASRYPTLWTE [I14G] | 4.53 |
| PALETQPQGDEEDEASRYPTLWTE [I14E] | 4.79 |
| PALETQPQGDEEDNASRYPTLWTE [I14N] | 5.01 |
| PALETQPQGDEEDMASRYPTLWTE [I14M] | 3.95 |
| PALETQPQGDEEDPASRYPTLWTE [I14P] | 4.99 |
| PALETQPQGDEEDFASRYPTLWTE [I14F] | 4.42 |
| PALETQPQGDEEDVASRYPTLWTE [I14V] | 4.19 |
| PALETQPQGDEEDSASRYPTLWTE [I14S] | 4.64 |
| PALETQPQGDEEDYASRYPTLWTE [I14Y] | 4.39 |
| PALETQPQGDEEDCASRYPTLWTE [I14C] | 4.14 |
| PALETQPQGDEEDAASRYPTLWTE [I14A] | 4.79 |
| PALETQPQGDEEDKASRYPTLWTE [I14K] | 3.96 |
| PALETQPQGDEEDHASRYPTLWTE [I14H] | 4.65 |
| PALETQPQGDEEDIATRYPTLWTE [S16T] | 4.39 |
| PALETQPQGDEEDIAVRYPTLWTE [S16V] | 5.14 |
| PALETQPQGDEEDIANRYPTLWTE [S16N] | 4.56 |
| PALETQPQGDEEDIAQRYPTLWTE [S16Q] | 5.17 |
| PALETQPQGDEEDIAERYPTLWTE [S16E] | 4.94 |
| PALETQPQGDEEDIAPRYPTLWTE [S16P] | 5.27 |
| PALETQPQGDEEDIADRYPTLWTE [S16D] | 4.76 |
| PALETQPQGDEEDIAWRYPTLWTE [S16W] | 3.99 |
| PALETQPQGDEEDIACRYPTLWTE [S16C] | 4.63 |
| PALETQPQGDEEDIAMRYPTLWTE [S16M] | 5.09 |
| PALETQPQGDEEDIAIRYPTLWTE [S16I] | 4.52 |

| Variant | protein stability index |
| --- | --- |
| PALETQPQGDEEDIAHRYPTLWTE [S16H] | 3.96 |
| PALETQPQGDEEDIAKRYPTLWTE [S16K] | 4.18 |
| PALETQPQGDEEDIAYRYPTLWTE [S16Y] | 4.31 |
| PALETQPQGDEEDIARRYPTLWTE [S16R] | 4.3 |
| PALETQPQGDEEDIAFRYPTLWTE [S16F] | 4.61 |
| PALETQPQGDEEDIALRYPTLWTE [S16L] | 4.81 |
| PALETQPQGDEEDIAGRYPTLWTE [S16G] | 5.21 |
| PALETQPQGDEEDIAARYPTLWTE [S16A] | 4.5 |
| PALETQPQGFEEDIASRYPTLWTE [D10F] | 3.39 |
| PALETQPQGWEEDIASRYPTLWTE [D10W] | 3.98 |
| PALETQPQGMEEDIASRYPTLWTE [D10M] | 3.05 |
| PALETQPQGKEEDIASRYPTLWTE [D10K] | 3.53 |
| PALETQPQGEEEDIASRYPTLWTE [D10E] | 4.16 |
| PALETQPQGHEEDIASRYPTLWTE [D10H] | 3.56 |
| PALETQPQGYEEDIASRYPTLWTE [D10Y] | 3.51 |
| PALETQPQGTEEDIASRYPTLWTE [D10T] | 4.14 |
| PALETQPQGAEEDIASRYPTLWTE [D10A] | 4.36 |
| PALETQPQGREEDIASRYPTLWTE [D10R] | 3.86 |
| PALETQPQGCEEDIASRYPTLWTE [D10C] | 3.36 |
| PALETQPQGGEEDIASRYPTLWTE [D10G] | 3.68 |
| PALETQPQGIEEDIASRYPTLWTE [D10I] | 3.68 |
| PALETQPQGSEEDIASRYPTLWTE [D10S] | 4.44 |
| PALETQPQGPEEDIASRYPTLWTE [D10P] | 4.6 |
| PALETQPQGLEEDIASRYPTLWTE [D10L] | 4.33 |

| Variant | protein stability index |
| --- | --- |
| PALETQPQGVEEDIASRYPTLWTE [D10V] | 3.69 |
| PALETQPQGQEEDIASRYPTLWTE [D10Q] | 4.41 |
| PALETQPQGNEEDIASRYPTLWTE [D10N] | 4.49 |
| PALETQPYGDEEDIASRYPTLWTE [Q8Y] | 3.89 |
| PALETQPNGDEEDIASRYPTLWTE [Q8N] | 5.23 |
| PALETQPEGDEEDIASRYPTLWTE [Q8E] | 5.1 |
| PALETQPHGDEEDIASRYPTLWTE [Q8H] | 4.96 |
| PALETQPWGDEEDIASRYPTLWTE [Q8W] | 4.16 |
| PALETQPKGDEEDIASRYPTLWTE [Q8K] | 3.9 |
| PALETQPAGDEEDIASRYPTLWTE [Q8A] | 4.88 |
| PALETQPPGDEEDIASRYPTLWTE [Q8P] | 4.33 |
| PALETQPRGDEEDIASRYPTLWTE [Q8R] | 4.6 |
| PALETQPFGDEEDIASRYPTLWTE [Q8F] | 4.48 |
| PALETQPMGDEEDIASRYPTLWTE [Q8M] | 4.87 |
| PALETQPGGDEEDIASRYPTLWTE [Q8G] | 3.6 |
| PALETQPSGDEEDIASRYPTLWTE [Q8S] | 4.74 |
| PALETQPIGDEEDIASRYPTLWTE [Q8I] | 5.02 |
| PALETQPVGDEEDIASRYPTLWTE [Q8V] | 5.17 |
| PALETQPDGDEEDIASRYPTLWTE [Q8D] | 5.29 |
| PALETQPTGDEEDIASRYPTLWTE [Q8T] | 4.86 |
| PALETQPCGDEEDIASRYPTLWTE [Q8C] | 5.05 |
| PALETQPLGDEEDIASRYPTLWTE [Q8L] | 4.05 |
